For the assay, the target named is CFP-MtbDarG MD (mCerulean-fused macrodomain of Mycobacterium tuberculosis DNA ADP-ribosylglycohydrolase DarG) (M. tuberculosis) (UniProt O53605). Kind of assay: FRET or BRET. Background: In BRET a luciferase serves as donor, and the signal depends on an acceptor being close.
CFP-MtbDarG MD (mCerulean-fused macrodomain of Mycobacterium tuberculosis DNA ADP-ribosylglycohydrolase DarG) (M. tuberculosis), sequence (O53605 1-155): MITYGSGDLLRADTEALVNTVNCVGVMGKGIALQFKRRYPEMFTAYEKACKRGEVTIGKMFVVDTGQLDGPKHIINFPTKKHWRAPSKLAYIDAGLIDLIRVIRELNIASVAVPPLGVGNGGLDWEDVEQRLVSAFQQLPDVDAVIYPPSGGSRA

PARylated YFP-GAP (mCitrine fused to a C-terminal Gαi 10-mer peptide, poly-ADP-ribosylated), sequence (P63096 whole entry, looked up, the tested form may be a part): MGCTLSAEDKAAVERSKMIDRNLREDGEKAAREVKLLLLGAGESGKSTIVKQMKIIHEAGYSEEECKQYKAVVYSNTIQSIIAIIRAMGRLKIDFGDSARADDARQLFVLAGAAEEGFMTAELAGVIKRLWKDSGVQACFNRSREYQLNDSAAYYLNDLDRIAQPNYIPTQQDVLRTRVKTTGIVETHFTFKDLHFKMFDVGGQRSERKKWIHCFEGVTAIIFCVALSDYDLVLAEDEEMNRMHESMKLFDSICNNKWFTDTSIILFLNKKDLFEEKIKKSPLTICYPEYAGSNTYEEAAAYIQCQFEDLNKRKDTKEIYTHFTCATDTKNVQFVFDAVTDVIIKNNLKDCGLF

Consider “PARylated YFP-GAP (mCitrine fused to a C-terminal Gαi 10-mer peptide, poly-ADP-ribosylated) (from UniProt P63096 345-354)”, for which the Kd stood at 316 nM.

For orientation: Kd means the concentration at which binding is half-saturated. Low values mean tighter binding, high ones weaker binding.

The record behind these values is publication doi:10.1101/2025.07.02.662713.
